Test results: patent US20190218277A1 (Chugai, published 2019)
Substitutions are numbered along the chain they refer to.

B1: DG_3CH989-SG182/3CL633-SK1 (antibody, V domains shown)
VH: QVQLVQSGAEVKKPGASVKVSCKASGYTFTSNYIHWVRQAPGQGLEWMGVINPRGGSRRSAQKFQGRVTMTRDTSTSTVYMELSSLRSEDTAVYYCARGGRALFYDSYTTPFDGGSWWFDPWGQGSLVTVSS
VL: DIQLTQSPSSLSASVGDRVTITCQASQDIRKYLNWYQQKPGKAPKLLIYDASNLKTGVPSRFSGSGSGTDFTLTISSLQPEDVATYYCQQFDDLPITFGQGTRLQIKR
B2: DG_3CH989-SG182/3CL668-SK1 (antibody, V domains shown)
VH: B1 VH
VL: B1 VL with D92E
B3: DG_3CH989-SG182/3CL-SK1 (antibody, V domains shown)
VH: B1 VH
VL: B1 VL with I21F, L73F
B4: DG_3CH1000-SG182/3CL668-SK1 (antibody, V domains shown)
VH: B1 VH with A9P, E10D, K12E, N32Y, I34M, V68I
VL: B1 VL with D92E
B5: DG_3CH992-SG182/3CL012-SK1 (antibody, V domains shown)
VH: B1 VH with N32Y
VL: B1 VL with I21F, L73F, D92E
B6: DG_3CH989-SG182/3CL666-SK1 (antibody, V domains shown)
VH: B1 VH
VL: B1 VL with D28E
B7: DG_3CH1047-SG182/3CL633-SK1 (antibody, V domains shown)
VH: B1 VH with A9P, E10D, K12E, N32Y, I34M, V68I, R101E
VL: B1 VL
B8: DG_3CH992-SG182/3CL666-SK1 (antibody, V domains shown)
VH: B1 VH with N32Y
VL: B1 VL with D28E
B9: DG_3CH1046-SG182/3CL-SK1 (antibody, V domains shown)
VH: B1 VH with N32Y, I34M
VL: B1 VL with I21F, L73F
B10: DG_3CH992-SG182/3CL633-SK1 (antibody, V domains shown)
VH: B1 VH with N32Y
VL: B1 VL
B11: DG_3CH1046-SG182/3CL012-SK1 (antibody, V domains shown)
VH: B1 VH with N32Y, I34M
VL: B1 VL with I21F, L73F, D92E
B12: DG_3CH992-SG182/3CL119-SK1 (antibody, V domains shown)
VH: B1 VH with N32Y
VL: B1 VL with I21F, D28E, L73F
B13: DG_3CH1000-SG182/3CL666-SK1 (antibody, V domains shown)
VH: B1 VH with A9P, E10D, K12E, N32Y, I34M, V68I
VL: B1 VL with D28E
B14: DG_3CH1000-SG1095/3CL-SK1 (antibody, human IgG1, kappa, L234A L235A)
heavy: QVQLVQSGPDVEKPGASVKVSCKASGYTFTSYYMHWVRQAPGQGLEWMGVINPRGGSRRSAQKFQGRITMTRDTSTSTVYMELSSLRSEDTAVYYCARGGRALFYDSYTTPFDGGSWWFDPWGQGSLVTVSSASTKGPSVFPLAPSSKSTSGGTAALGCLVKDYFPEPVTVSWNSGALTSGVHTFPAVLQSSGLYSLSSVVTVPSSSLGTQTYICNVNHKPSNTKVDKRVEPKSCDKTHTCPPCPAPEAAGGPSVFLFPPKPKDTLMISRTPEVTCVVVDVSHEDPEVKFNWYVDGVEVHNAKTKPREEQYNSTYRVVSVLTVLHQDWLNGKEYKCKVSNAALPAPISKTISKAKGQPREPQVYTLPPSREEMTKNQVSLTCLVKGFYPSDIAVEWESNGQPENNYKTTPPVLDSDGSFFLYSKLTVDKSRWQQGNVFSCSVMHEALHNHYTQKSLSLSP
light: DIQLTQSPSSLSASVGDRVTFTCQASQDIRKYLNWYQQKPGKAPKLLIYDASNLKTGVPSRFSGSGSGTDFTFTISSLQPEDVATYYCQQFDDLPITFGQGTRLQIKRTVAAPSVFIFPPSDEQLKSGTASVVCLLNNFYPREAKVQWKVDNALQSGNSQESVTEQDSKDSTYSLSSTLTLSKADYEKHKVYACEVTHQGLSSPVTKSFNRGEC
B15: DG_3CH1000-SG1095/3CL012-SK1 (antibody, human IgG1, kappa, L234A L235A)
heavy: B14 heavy
light: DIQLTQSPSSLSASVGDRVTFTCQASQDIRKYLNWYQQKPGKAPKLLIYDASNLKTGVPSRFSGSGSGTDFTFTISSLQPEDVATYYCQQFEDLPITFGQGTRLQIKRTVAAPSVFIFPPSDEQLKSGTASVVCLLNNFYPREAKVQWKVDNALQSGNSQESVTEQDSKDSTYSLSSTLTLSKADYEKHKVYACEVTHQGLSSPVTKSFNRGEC
B16: DG_3CH1000-SG182/3CL633-SK1 (antibody, V domains shown)
VH: B1 VH with A9P, E10D, K12E, N32Y, I34M, V68I
VL: B1 VL
B17: DG_3CH992-SG182/3CL-SK1 (antibody, V domains shown)
VH: B1 VH with N32Y
VL: B1 VL with I21F, L73F
B18: DG_3CH1046-SG182/3CL119-SK1 (antibody, V domains shown)
VH: B1 VH with N32Y, I34M
VL: B1 VL with I21F, D28E, L73F
B19: DG_3CH1046-SG182/3CL633-SK1 (antibody, V domains shown)
VH: B1 VH with N32Y, I34M
VL: B1 VL
B20: DG_3CH1000-SG1095/3CL119-SK1 (antibody)
heavy: B14 heavy
light: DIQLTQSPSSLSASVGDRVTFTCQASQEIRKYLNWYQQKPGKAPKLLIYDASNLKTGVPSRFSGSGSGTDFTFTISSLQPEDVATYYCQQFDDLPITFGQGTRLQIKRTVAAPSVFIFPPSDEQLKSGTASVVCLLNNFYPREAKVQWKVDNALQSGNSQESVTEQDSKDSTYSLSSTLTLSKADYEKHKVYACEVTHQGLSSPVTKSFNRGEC
B21: DG_3CH1047-SG182/3CL666-SK1 (antibody, V domains shown)
VH: B1 VH with A9P, E10D, K12E, N32Y, I34M, V68I, R101E
VL: B1 VL with D28E

What was measured:
[1] = target: T1, Recombinant soluble E protein (0.8E-His) from DENV-4 (DENV-4, UniProt P09866 280-674); test: SPR, Biacore T200
T1 construct: also called DENV-4 E protein; DV4

[2] = target: T2, Recombinant soluble E protein (0.8E-His) from DENV-2 (DENV-2, UniProt P14340 281-675); test: SPR, Biacore T200
T2 construct: also called DENV-2 E protein; DV2

[3] = target: T3, Recombinant soluble E protein (0.8E-His) from DENV-1 (DENV-1, UniProt P27909 281-675)
T3 construct: also called DENV-1 E protein; DV1

[4] = target: T4, Recombinant soluble E protein (0.8E-His) from DENV-3 (DENV-3, UniProt P27915 281-673)
T4 construct: also called DENV-3 E protein; DV3

| Binder | binding result [1] | binding result [2] | Kd [3] [pM] | Kd [4] [pM] |
| --- | --- | --- | --- | --- |
| B1 | binds | binds | 1540 | 2.37 |
| B2 | binds | binds | 1500 | 3.03 |
| B3 | binds | binds | 1840 | 0.448 |
| B4 | binds | binds | 1680 | 0.8 |
| B5 | binds | binds | 1720 | 1.07 |
| B6 | binds | binds | 1500 | 1.96 |
| B7 | binds | binds | 956 | 0.437 |
| B8 | binds | binds | 1390 | 0.802 |
| B9 | binds | binds | 1910 | 0.213 |
| B10 | binds | binds | 1270 | 2.95 |
| B11 | binds | binds | 1920 | 0.145 |
| B12 | binds | binds | 1870 | 0.515 |
| B13 | binds | binds | 1660 | 2.5 |
| B14 | binds | binds | 1800 | 16.8 |
| B15 | binds | binds | 1830 | 0.959 |
| B16 | binds | binds | 1770 | 4.25 |
| B17 | binds | binds | 2020 | 4.03 |
| B18 | binds | binds | 1530 | 2.73 |
| B19 | binds | binds | 1640 | 0.201 |
| B20 | binds | binds | 1920 | 0.0428 |
| B21 | binds | binds | 982 | 42 |
